Measured values as given in the nanobody polyreactivity screen of Harvey et al. (2022).

Experiment: yeast display, Sf9 membrane polyspecificity reagent, FACS + sequencing; frameworks hold sequencing errors
Method in brief: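 Nanobodies from a synthetic yeast display library (Saccharomyces cerevisiae BJ5465), induced 36–48 hours with galactose, were stained 1 hour at 4 °C with 10% biotinylated, detergent-solubilized Sf9 membrane reagent, enriched on streptavidin microbeads, then FACS-sorted. Anti-HA (expression) and streptavidin (reagent binding) fluorescence set low and high (top ~1%) gates. Polyreactivity labels come from the gate of origin. Genes were colony-PCR amplified, MiSeq 2 × 250 sequenced and filtered by CDR length.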

Sequence	polyreactivity (PSR sort gate)
QVQLVESGGGLVQAGGSLRLSSAASGFTFRAYTMGWYRQAPGKERELVAAISWSGSSTYYADSVKGRFTISRDTAKNTVYLQMNSLKPEDTAVYYCAARHWRRWFPYDYWGQGTQVTVSS	high polyreactivity
QDQLVESGGGLVQAGGSLRLSCAASGRIFDIYAMGWYRQAPGKERELVAAITWRGGSTYYADSVKGRFTISRDTAKNTLYLQMNSLKPEDTAVYYCAVDFITPRGSYYWGQGTQVTVSS	low polyreactivity
QVQLVESGGGLVQAGGSLRLSCAASGSIYRDALGWYRQAPGKERELVAAINFNGGRTYYADSVKGRFTISRDNAKNTVYLQMNSLKPEDTAVYYCAAVRSSNQGGFDYWGQGTQVTVSS	high polyreactivity
QVQLVESWGGLVQAGGSLRLSCAASGRIFRGYAMGWYRQAPGKERELVAVISYSGTRTYYADSVKGRFTISRDNAKNTVYLQMNSLKPEDTAVYYCNARANGFKDGYWGQGTQVTVSS	high polyreactivity
QVQHVESGGGVVQAGGSLRFSCAASGRIFYRYAMGWYRPAPGKERELVAAITIGGRTNYADSVKGRFTISRDNAKTTVYLQMNSLKPEDTAVYYCAVVLYTRYPPRVRYYYWGQGTQVTVSS	high polyreactivity
QVQLVESGGGLVQAGGTLRLSCAASGIIFGYYAMGCYRQAPGKERELVAAINSGGSTYYADSVKGRFTISRDNAKNTVYLQMNSLKPEDTAVYYCKAKLYSKYWGQGTQVTVSS	high polyreactivity
QVQLVESGGGLVQAGGSLRLSCAASGRNFPRYAMGWYRQAPGKERELVAAISWRGGSTRYADSVKGRFTISRDNEKNTVYLQMNSLKPEDTAVYYCAAEFWFFPGWAYEYWGQGTQVTVSS	high polyreactivity
QVQLVESGGGLVQAGGSLRLSCAASGFIFFTYAMGWYRQSPGKERELVAAISSRGGSTYYADSVKGRFTISRDNAKNTVYLQMNSLKPEDTAVYYCAAQAYGRYPYGYWGQGTQVTVSS	high polyreactivity
QVQLVESGGGLVQAGGSLRLSCAASGSTLAPYVMGWYIQAPGKERELVAVISTRTGRTYYAVSVKGRFTISRDNAKNTVYLQMNSLKPEDTAVYYCAAAYGWSWYRYDYWGQGTQVTVSS	high polyreactivity
QVQLVESGGGLVQAGGSLRLSCAASGRIFWSNAMGWYRQAPGKERELVAAIRNTCSTNYADSVKGRFTISRDNAKNTVYLQMISLKPEDTGVYYCAADRASYFTYAYGYWGQGTQVTVSS	high polyreactivity
QVQLVESGGGLGKAVGSLRLSCAASGSTFEYYALGWYRLAPGTETELVAAISTAGSTYYADSVKGRFTISRDNAKYTVYLQMNSLKPEDTGVYYCAVDPSPRSYYNYYWGQGTQVTVSS	high polyreactivity
QDQLVESGGGLVQAGGSLRIICAASGSIVVTNAMGWYRQAPGKVRELVAAMSGRADSTYADSVKGRFTISRDNAKNTVYLQMNSLKPEDTAVDYCAAKVRGWHYYYCGQGTQVTVSS	low polyreactivity
QVQLVESGGGLVQAGGSLRLSCAASGFIFVLYAMGWYRQAPGKERELVAAITWSTGSTYYADSVKGRFTISRDNAKNTVYLQMNSLKPEDTAVYYCAADQYIFGIWFDYWGQGTQVTVSS	high polyreactivity
QVQLVESGGGLVQAGGRLLLSCAASGRTFYRNAMGWYRQAPGKEREFVPSIRTSGGSTYYADSVKGRFTISRDNAKNTVYLQMNSLKPEDTAVYYCKKYRQQGWEFDYWGQGTQVTVSS	high polyreactivity
QVQLVESGGGLVQAGGSLRLSCAASGRIFDHYAMGWYRQAPGKERELVAAINSGGTTNYADSVKGRFTISRDNAKNTVYLQMNSLKPEETAVYYCAARPRKGQYYFGGNYWGQGTQVTVSS	low polyreactivity
QVQLVESGGGLVQAGGSLRLSCAASGSTFNRYGMGWYIQAPGKERELVAAISGSNGGTYYADSVKGRFTISRDNAKNTVYLQMNSLKPEDTAVYFCAKVRAYTRLGLTVSMDYWGQGTKVTVSS	high polyreactivity
QVQLVESGGGLVQAGGSLRLSCAASGFIFKIYTMGWYRQAPGKERELVAAITRRGGRTFYADSVKGRFTISRDNAKNTVYLQMNSLKPEDTAVYYCNAGTKYGTYIATGALKHDYWGQGTQVTVSS	low polyreactivity
QVQLVESGGGLVQAGGSLRLSCAASGYIFYTYAMGWYRQAPGKERELVAGINRGDSTNYADSVKGRFTISRDNAKNTVYLQMNSLKPEDTAVYYCNARQRTYYRTHRIRHKGNGYWGQGTQVTVSS	low polyreactivity
QVQLVESGGGLVQAGGSLRLSCAASGFTFVDNAMGWYRQAPGKERELVAVIDFNDGTTYYADSVKGRFTISRDNAKNTVYLLMNSLKPEDTEVYYCNVDSSLILWVEYDYWGQGTQVTVSS	low polyreactivity
QVQLVESGGGLVQAGGSLRLSCAASGSILYVYAMGWYRQAPGKERELVATITGRVVSTNYADSVKGRLTISRDNAKNTVYLQMNSLKPEDTAVYYCAARTRRRRGEYDYWGQGTQVTVSS	high polyreactivity
QVQLVESGGGLVQAGGSLRLSCAASGFIFGPNAMGWYRQAPAKERELVAAISYSGGRTYYADSVKGRFTISRDNAKNTVYLQMNSLKPEDTSVYYCAADAYWYGRSYYWGQGTQVTVSS	high polyreactivity
QVQLQESNGGLVQAGGCLRLSCAASGNIFDADIMGWFRKAPGIERELVASITDGGSTNYADSVKGRFTINRDNALNTVYLQMYSLKPEDTAVYYCAVSYKGWYQLGYWGQGTQVTVSS	high polyreactivity

Sequence	polyreactivity (PSR sort gate)
QVQLVESGGGLVQAGGSLRLSCAASGSIFYPYAMGWYRQAPGKERELVAAISSGGTTYYADSVKGRFTISRDNAKNTVYLQMNSLKPEDTAVYYCGAGFYLRAVWMDYWGQGTQVTVSS	high polyreactivity
QVQLVESGGGLVQAGGSLRLSCAASGSTFVGYAMGWYRQAPGKERELVAAITSRGGRTYYADSVKGRFTISRDNAKNTVYLQMNSLKPEDTAVYYCNAKRPRIGVTRYDYWGQGTQVTVSS	high polyreactivity
QVQLVESGGGLVQAGGSLRLSCAASGFIFKRYAMGWYRQAPGKERELVAAITLSGGDTYYADSVKGRFTISRDNAKNTVYLQMNSLKPEDTAVYYCAARYMSTRTLYYYWGQGTQVTVSS	high polyreactivity
QVQLVESGGGLVQAGGSLRLSCAASGSIIPGYTMGWYRQAPGKERELVAAITSSGGSTYYADSVKGRFTISRDNAKNTVYLQMNSLKPEDTAVYYCNAPFWGYRTSFSYPVVQRFDYWGQGTQVPVSS	low polyreactivity
QVQLVESGGGLVQAGGSLRLSCAASGSTFYYYAMGWYRQAPGKERELVAAISKSGGSTYYADSVKGRFTISRDNAKNTVYLQMNSLKPEDTAVYYCAARGRYISDYWGQGTQVTVSS	high polyreactivity
QVQLVESGGGLVQAGGSLRLSCAASGRNFNFNTIGWYRQAAGKEREFLAAITFRGVRTYYADSVKGRFTISRDNAKNTVYLQMISLKPEDTAVYYCATQARLYGGYDRYAGSYDYWGQGTQVTVSS	high polyreactivity
QVQLVESGGVLVQAGGILRLSCAASGRIFYGNTMGWYRQAHGKERELVAAISRSGGSTYYADSVKGRFTSSRDNAKNTVYLQMNSLKPEDTAVYYCAAKRSWGYDYWGLGTQVTVSS	high polyreactivity
QVQLVESGGGLVQAGGSLRLSCAASGNTFRYYAMGWYRQAPGKERELVAAISESGGRTYYADSVKGRFTISRDNAKNTVYLQMNSLNPEDTAVYYCAASRWARTWWYGYNYWGQGTQVTVSS	high polyreactivity
QVQLVESGGGLVQAGGSLRLSCAASGSTLERYTMGWYRQAPGKERELVAAIRWSGTSTYYADSVKGRFTISRDNAKNTVYLQMKSLKPEDTAVYYCARVGFSRYYRTMYYWGQGTQVTVSS	high polyreactivity
QVQLVESVGGLVQAGGSLRLSCAASGFTFSPNARGSYRQAPGKERELVAAIDWSGDRTYYADSVKGRFTISRDNAKNTVYLQMNILKPEDTAVYYCKVVRRSPGDYSYYYWGQGTQVTVSS	low polyreactivity
QVQLVESGGGLVQAGGSLRLICAASGLIFDYYRMGWYRQATGKQRELVAAITSSGSRTYYADSVKGRFTISRDNAKKTVYLQMNSLNPEDTAVYFCARGGGRRKGLVDYWGQGTQVTVSS	low polyreactivity
QVQLVESGGGLVQAGGSLRLSCAASGRIIYTNAMGWYRQAPGKERELVAAINRSGGITYYADSVKGRFTISRDNAKNTVYVQMNSLKPEDTAVYYCAKDSSWASYNHDYWGQGTQVTVSS	low polyreactivity
QVQLVESGGGLVQAGGSLRLSCAASGFICPIYPMGWYRQAPGKERELVAGISWRGGSTYYADSVKGRFTISRDKATYTVYLQMNSLKPEDTAVYYCAVVVQGYSTYYYWGQGTQVTVSS	high polyreactivity
QVQLVDSGGGLVQAGGSLRLSCAASGFTFQYYSMGWYRQATGKERELVADISSSGDSTNYADSVKGRFTISRDTAKNTVYLQMNSLKPEDTAVYYCAADYSQPNFEYYYWGQGTQVTVSS	low polyreactivity
QVQLVESGGGLVQAGGSLRLSCADSGFILSPNTMGWYRQAPGKERELVAAMSSDVSTYADSVTGRFTISRDNAKNTVYLQMNSLKPEDTAVYYCNADDFGYASYEYWGQGTQVTVSS	low polyreactivity
QVQLVESGGGLVQAGGSLRLSCAASGFIFDYNTMGWYRQAPGKERELVADISGGGGRTYYADSVKGRFTISRDNAKNTVYLQMNSLKPEDTAVYYCAALGFYHHAWWISYDYWGQGTQVTVSS	low polyreactivity
QVQLVESGGGLVQAGGSLRLSCAASGFIFQRNAMGWYRQAPGKERELVAAIRSSGGTTYYADSVKGRFTISRDNAKNTVYLQMNSLKPEDTAVYYCAAVTTSKFNYWGQGSQVTVSS	low polyreactivity
QVQLVESGGGLVQAGGSLRLSCAASGSTFSYNDMGWYRQAPGKERELVAAITDSDGNTDYADSVKGRFTISRDKAKNTVYLQMNSLKPEDTAVYYCAAYYYGSVAQDREYWGQGTQVTVSS	high polyreactivity
QVQLVESGGVLVQAGGSLRLSCAASGSTFLLNTMGWYRQAPGKERELVATITSTDDTNYADSVKGRFTISRDNAKNTVYLHMNSLKPEDTAVYYCAKGYLNYGRDWDFDSWGQGTQVTVSS	low polyreactivity
QVQLVESGGGLVQAGGSLRLSCAASGSIFHFYAMGWYRQAPGKERELVAAITSGTSTYYADSVKGRFTISRDNAKNTVFLQMNSLKPEDTAVYYCAAEASHYYYNAYPSYGGSDYWGQGTQVTVSS	low polyreactivity
QVQLVDSGGGLVQAGGSLRLSCAASGSIFHFYAMGWYREATGKERELVAAITRGGGSTYYADSVKGRFTISRDNAKNTVYLQMNSLKPEDTAVYYCAAYKYYRYNYWGQGTQVTVSS	high polyreactivity
